# Results taken from article PMC4837482, “The complex binding mode of the peptide hormone H2 relaxin to its receptor RXFP1” (Nature Communications, 2016).
# Where no end group is shown, it is not given here. The star is where a group is joined. DTPA = O=C(O)CN(CCN(CC(=O)O)CC(=O)O)CCN(CC(=O)O)CC(=O)*
# B1: Europium-labelled H2 relaxin (ligand, human)
# chain 1: {DTPA}-QLYSALANKCCHVGCTKRSLARFC
# chain 2: DSWMEEVIKLCGRELVRAQIAICGMSTWS
# modifications: not fully specified; ends and bridges not checked; also: DTPA cage loaded with Eu^3+
# notes: A chain of human gene-2 (H2) relaxin; numbers count on: the A chain; B chain of human gene-2 (H2) relaxin; numbers count on: the B chain; also called Eu-H2 relaxin; Eu-H2
# What was measured:
# Experiment in all cases: europium-labelled ligand saturation binding on cells (time-resolved fluorescence); HEK293T cells transiently transfected with receptor, 96-well plates; increasing Eu-H2 relaxin (maximum 15 nM) with or without 1 μM unlabelled H2 relaxin, 1 h, room temperature; 20 mM HEPES pH 7.5, […] CaCl2, 50 mM NaCl, 0.01% NaN3, 1% BSA; one-site fit
# [1] = target: RXFP1 G45A, full length (human)
# [2] = target: RXFP1 Y57A, full length (human)
# [3] = target: RXFP1 F54A/Y58A, full length (human)
# [4] = target: RXFP1 F50A^ins, full length (human)
# [5] = target: RXFP1 F50A, full length (human)
# [6] = target: RXFP1 N44A, full length (human)
# [7] = target: RXFP1 W46A, full length (human)
# [8] = target: RXFP1 A55L, full length (human)
# [9] = target: RXFP1 Q49A/F50A, full length (human)
# [10] = target: RXFP1 T61A, full length (human)
# [11] = target: RXFP1 N43A, full length (human)
# [12] = target: RXFP1 S47A/L48A, full length (human)
# [13] = target: RXFP1 D42A, full length (human)
# [14] = target: RXFP1 F54A, full length (human)
binder,measurement,setting,value
B1,Kd,[1],19.1 nM
same,Kd,[2],0.81 nM
same,Kd,[3],6.51 nM
same,Kd,[4],16.7 nM
same,Kd,[5],6.48 nM
same,Kd,[6],0.81 nM
same,Kd,[7],12.3 nM
same,Kd,[8],1.54 nM
same,Kd,[9],6.74 nM
same,Kd,[10],0.69 nM
same,Kd,[11],2.55 nM
same,Kd,[12],0.43 nM
same,Kd,[13],20.7 nM
same,Kd,[14],2.43 nM
